From paper PMC5577263 come the findings set out here.

The target of the assay is recombinant mouse α-synuclein amyloid fibrils (mouse) (UniProt O55042). Put plainly: SPR. (In general: In SPR one partner is held on a chip, and binding of the other changes the refractive index at the surface.)

For “recombinant full-length mouse PrP MoPrP(23-231) (from UniProt P04925 23-231) (natural protein)”, the KD, first of two (ratio of one of two koff values to kon) came to 0.0031 µM and the KD, second of two (ratio of one of two koff values to kon) was 0.0365 µM.
